From the supplement of paper PMC12764529
± gives the half width of the 95% confidence interval.

Test: folding stability dG unfold (combined trypsin and chymotrypsin); higher = more stable
How it was run: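 Unfolding free energy was derived, per protease or combined, by relating Bayesian-fitted K50 values from sequencing counts to a sequence-predicted unfolded-state K50 and a shared folded-state K50. The underlying digests exposed cysteine-free mini-proteins under 80 residues, in a PA-tagged cDNA display construct, to trypsin and chymotrypsin at 11 threefold-diluted concentrations and to a no-protease condition. A filter kept only designs with AlphaFold2 dimer inter-PAE above 15.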

First: SAGGMPDRVRPFPFRAPVLRLDPPEPEEVEVVAFVFPDNRVLALARSPDPGRVLLAVDDGDRVLVADASAGG [r13_117_TrMRF]
Second: SAGGTIEEIKEALKKLPEGAVVEVTTENGEKLEFKSLEEIKKATITNENGEKIKITEVKVYPAKKEKSAGGS [r16_680_TrROS_Hall]
The “folding stability dG unfold” value of the first is higher: -2 ± 0.795 kJ/mol for the first, under -4.18 kJ/mol for the second.

Going from “SAGGKITIDVNYNPEENNFRIKITWPNGKEKELPIPMEGMPAEDMRREAREFAQNLNPDGLKEVEIEPSAGG [r13_267_TrROS]” to “SAGGEITIVIEGMSEEEREKALEEVRNKIKELKEKHPEKKITIVVDTPEAKKVAEELKKEGYEVEILSAGGS [r16_450_TrROS_Hall]”, the “folding stability dG unfold” value rises from 1.19 ± 1.8 kJ/mol to 12 ± 1.8 kJ/mol.

First: SAGGSAGGSAGMVIKSPDGRIIEVEEEEEGEKLKIKRITYVGDKYTPSEEEIEVPPVDLKSAGGSAGGSAGG [r11_106_JUSTAS]
Second: SAGGSAGGSAGYKPDPDGQYTQEMRLPREPPRIRITIPMSPNDPDKAQKFINNLAEEFGISAGGSAGGSAGG [r17_501_TrROS]
The “folding stability dG unfold” value of the first is lower: under -4.18 kJ/mol for the first, -1.34 ± 1.34 kJ/mol for the second.

Going from “SAGGGMPVPEVEVELLEEREVPGGRVTLGRAKTPDAWETLTTEYDPATGRRRTWRETPEGVTPYAEEGSAGG [r13_445_JUSTAS]” to “SAGGSAMIEVRTVAGEPVEVTPIPEDEVLVARTPGGRKAPFLLGEDVLRELVVEPDAPPDLFIVPGSAGGSA [r15_709_TrMRF]”, the “folding stability dG unfold” value rises from under -4.18 kJ/mol to -2.58 ± 0.544 kJ/mol.

“SAGGSAGGSAGGMTETKVYPKSSEGGKLTTITTTTTPLKDPKGNWSTKTTTTTSVSPATSAGGSAGGSAGGS [r10_496_JUSTAS]” and “SAGGSDLSSASFSSSPSTLPDGRSLTTYPAVTLPDGTVATLTVETDPATGAPTVTLTLGDTDIVLATSAGGS [r16_766_JUSTAS]” are within error of each other in “folding stability dG unfold” value: -2.03 ± 1.13 kJ/mol for the first, -1.98 ± 1.05 kJ/mol for the second.

First: SAGGSAGGSAGSSSSAVRESFQKSPTNVVTRTVTTYDANPSVLSTSSTTVPLSSVPPELLSAGGSAGGSAGG [r11_493_JUSTAS]
Second: SAGGSAGGSAGGSGRVEIELEFKLENGFYVRIKAEIEFEEDGKIRIKVEIELLPEELEESAGGSAGGSAGGS [r4_297_TrROS_Hall]
The “folding stability dG unfold” value of the first is lower: 0.0212 ± 0.628 kJ/mol for the first, 16.3 ± 1.72 kJ/mol for the second.

First: SAGGSAGHMIEKVTTTSPDNTTTTVSLTPPDAPLDIKLPNGASATQTPLPGGRLRVTTTTTTPAAASAGGSA [r15_523_JUSTAS]
Second: SAGGMPVPKEKVKSVLYLPHPESDEPEVLVLAELGGKPVLFVIPSELSLEEAIKAVEEGVEAGPIDLGSAGG [r13_225_TrMRF]
The “folding stability dG unfold” value of the first is higher: 1.41 ± 0.879 kJ/mol for the first, -1.49 ± 1.13 kJ/mol for the second.

First: SAGGSKEEIEKKLKELAEKLGVEVEDIEIKPLSNGKYIAVVKFKDNPNVYAVYEFDGDEIKIVEIKPSAGGS [r8_432_TrMRF]
Second: SAGGSAGGSAGGRTYRLTLTRPDGRPLTFEVPTDTAPEHVELLKSLFPDEEIEADISDVESAGGSAGGSAGG [r7_349_TrMRF]
The “folding stability dG unfold” value of the first is higher: 21.5 ± 2.38 kJ/mol for the first, -2.73 ± 1.92 kJ/mol for the second.

“SAGGSAGGSAGGDEIAKQIAEHFREKGLDKNREIEIRNPENGEKITVRYTPEGGDFEVEPSAGGSAGGSAGG [r7_301_TrROS]” and “SAGGSAGGSALRPDEPFLVRVRIVDPRPGEGPPVERELVLPLEAILRLIPPGAGADVELLPSAGGSAGGSAG [r3_223_TrMRF]” cannot be ordered by “folding stability dG unfold” value: under -4.18 kJ/mol for the first, under -4.18 kJ/mol for the second.

Going from “SAGGSAGGSASSVSSLSEETLPDGKPVLVRKETVYDPKHGLTGLSVTYYTLGGKKLKTEVVSAGGSAGGSAG [r3_154_JUSTAS]” to “SAGGSAGGSAGMKTKATFVIDNEEYDATIDPGTPKNSTATVTKPDSTTTITVTNIKLFPESAGGSAGGSAGG [r11_247_JUSTAS]”, the “folding stability dG unfold” value rises from -2.92 ± 0.92 kJ/mol to 1.45 ± 0.46 kJ/mol.

Compared with “SAGGGSSVTYDPATGEVTVTLHPVDPHPGRLRSRTLPLPAPGSPEEVRERIRALVEAEPAWSTDLTAASAGG [r13_284_JUSTAS]”, “SMKVLEGEEEAKKLAEEEGVPVIPVPADVSLEEIKKRIKETPGFPPDTVVATVIPKEPGRTTVIVLPLGKSA [r9_314_JUSTAS]” is lower in “folding stability dG unfold” value: 1.77 ± 0.753 kJ/mol for the first, 0.0467 ± 0.418 kJ/mol for the second.

Compared with “SAGGSAGGSAGRRSVPEEVVEAIAEELPREGLTPKSIEVVEGEDEFEAVIEYDDRTITVAGSAGGSAGGSAG [r3_395_JUSTAS]”, “SAGGSAGGSAGMESKVVTLDVPLAPDETAEAVAARLRAADPAAVLLGYDPAAGRVTVRVASAGGSAGGSAGG [r11_465_JUSTAS]” is lower in “folding stability dG unfold” value: -0.421 ± 0.418 kJ/mol for the first, -1.39 ± 0.364 kJ/mol for the second.

Compared with “SAGGSAGMPTTVFLTRPGPRAITMRTDPVSGTVTFTLPSGEVTTTPLSTVKELKVPPDIATVTILASAGGSA [r15_1043_JUSTAS]”, “SAGGSALPPGQKIKMKFPDDGKKMTITFNPGQNNIEIENDGKKETYPFDSVEDLLDEFGWKVLDIESAGGSA [r15_500_TrROS]” is higher in “folding stability dG unfold” value: -2.55 ± 1 kJ/mol for the first, -0.204 ± 0.795 kJ/mol for the second.

Going from “SAGGAPAAGDVVETETLRLERDEPDTITLTRLRTVEVVLPDGRVLTRTESETVRLEATDEEAVELAESSAGG [r13_544_TrMRF]” to “SAGGSAGGSGTSTSSSGPSTVTITLHTDSPVTLTVPPETTEELAAELKARGYNLEVKVTPAPASAGGSAGGS [r20_124_JUSTAS]”, the “folding stability dG unfold” value falls from 1.66 ± 0.586 kJ/mol to -0.815 ± 0.46 kJ/mol.

Compared with “SAGGSAGGSAGAVTVTLTGGPTLEIPIPDVPPEELGTPEVVARIEAIAAARGLTIASIRLSAGGSAGGSAGG [r11_467_JUSTAS]”, “SAGGSAGGSAGGMFYIKIPNGKQFPFKSKEEFKDQLRERNGRPMKIKDIEIQPLDPNQFSAGGSAGGSAGGS [r10_62_TrROS]” is higher in “folding stability dG unfold” value: under -4.18 kJ/mol for the first, -0.371 ± 1.34 kJ/mol for the second.

“SAGGSAGGYRITIKDPDGVKIEIWQGPNGMMPIKVENPNGKKRERMVNGPPGDIEDFLKELLKQSAGGSAGG [r6_27_TrROS]” and “SAGGSAGGSSPKAQRLQDRIRQEFPPNEIDKVEMSGDKIVIHGRPGYRQRIQEELGLKNIEIVSAGGSAGGS [r12_748_TrROS]” are within error of each other in “folding stability dG unfold” value: -0.523 ± 2.47 kJ/mol for the first, 0.296 ± 0.544 kJ/mol for the second.

Compared with “SAGGGSTVVTTTEPAAAVRARVEAEARARGVALDVDVTVEPTPEGPVVTFDVRVDPGAPAVPAANRVSAGGS [r16_262_JUSTAS]”, “SADPALEAEARARARAEARARGVERLEFELTREVTRESLVRFPGGELREVVERREVRYRVEVEVPPEAASAG [r14_232_JUSTAS]” is higher in “folding stability dG unfold” value: -2.63 ± 1.05 kJ/mol for the first, 1.53 ± 0.414 kJ/mol for the second.

First: SAGGSAGGSAGKNNKVKLTYTIEVEGEGKPKKIKIEYYLSPNGIPEPPELIKSKAGGLAKSAGGSAGGSAGG [r17_373_TrMRF]
Second: SAGGSAGGSAGGAVERFPGPATVTALPDGRRLVTTTDPSGRPTLTLLEVETPERVTAHPASAGGSAGGSAGG [r7_423_JUSTAS]
The “folding stability dG unfold” value of the first is higher: -0.799 ± 0.879 kJ/mol for the first, -2.78 ± 0.837 kJ/mol for the second.

“SAGGSAGGSAGMIVVPPEDLENLPPWYSVEPGEDSVTVWDESNPVVVPRDEPALVSPPERSAGGSAGGSAGG [r17_91_JUSTAS]” and “SAGEPNKIKVKVKIRMWMPRKDPDGQQAEPHPMPMTFEYKAPWEDAKNIIDSMPPGMQIDKIDKIEPLSAGG [r19_114_TrROS]” are within error of each other in “folding stability dG unfold” value: -0.568 ± 0.92 kJ/mol for the first, 0.454 ± 1.21 kJ/mol for the second.

Going from “SDKDEKVIPSTSTSTDPETGTVTTTSTNTTITKGKIISPTTVTTTYPTATTTTTSTTIVDPNGNITTINSSA [r9_1015_JUSTAS]” to “SAGGGSSSSSIATETFTKEVEVPTEDGKLKKVLVTTTVSRPISLEPKTGKKYSLSTTVTTTTVSPEELSAGG [r13_312_JUSTAS]”, the “folding stability dG unfold” value falls from 1.25 ± 0.586 kJ/mol to under -4.18 kJ/mol.

Compared with “SAGGSAGGSAGGKKEREFKFPGAPIQAPVERNPANGKLKIDVEVTGDNPDWAKRLADAFSAGGSAGGSAGGS [r10_582_TrROS]”, “SAGGSAGGSIKITLETETETYLDPEDPNRPVTKVKAVKPTIEVPEENPEKLKELAEKLGLELESAGGSAGGS [r12_249_TrMRF]” is higher in “folding stability dG unfold” value: under -4.18 kJ/mol for the first, 0.971 ± 0.418 kJ/mol for the second.

Compared with “SAGGMTITLPKNMTKEELEALAKKLEEETGLKVTIEYNEETNEVTITVEGLSEEEQERIKKLLEEAASAGGS [r16_227_TrROS_Hall]”, “SAGGSAPKRLRIKFKDPDGKTQKIKIPPGIKSINIQPNNDYVSLMIHNPEDGQSRMLPPMRVDEITSAGGSA [r15_133_TrROS]” is lower in “folding stability dG unfold” value: over 25.1 kJ/mol for the first, under -4.18 kJ/mol for the second.

“SAGSHEAWFPIPELLNDPGLEDAWIRVTVHPTPNGNIDIDIEPEPVPKPKITPEEMQEQMEENNKQMKSAGG [r19_313_TrROS]” and “SAGGSAKLPPGQRVRLEIEHPAHGWTHEHTFPIKSVEEFKQSLEIPMPNPNGEPMPMRVKILDVEKSAGGSA [r15_797_TrROS]” cannot be ordered by “folding stability dG unfold” value: under -4.18 kJ/mol for the first, under -4.18 kJ/mol for the second.

Going from “SGGATVEAFRRAPPGVRARILVEERGEELIVRLEIEGDDRRDEAEFPDPEEALARLLAAGVPVVVDELPASA [r9_1021_TrMRF]” to “SAGKIVIEGEPEKLPEAIEEALKNNPDLKKVTIYYGDKSEEFEKDEEVKFFKPKKNKDGKPFMVLVVEDSAG [r5_130_TrMRF]”, the “folding stability dG unfold” value rises from under -4.18 kJ/mol to -0.0243 ± 1.55 kJ/mol.

With “SAGGSAGGSAGGTTLLFPDKIIRTLPLPPGAVFDVPPGLTLEGVEEDPSTGTLTVTVKGLSAGGSAGGSAGG [r11_942_JUSTAS]” the “folding stability dG unfold” value was -0.883 ± 1 kJ/mol.
